Experimental data taken from patent publication US20190330271A1 (HANGZHOU WISDOM PANACEA BIOLOGICS, published 2019).

B1: ZR + N (SEQ ID NO: 5), histidine-tagged (peptide)
peptide: SFFNNNKR
notes: ZR derivative with one more Asn; not shown: histidine tag
B2: ZR4-ΔN (SEQ ID NO: 3), histidine-tagged (peptide)
peptide: SFFNKR
notes: ZR derivative with one Asn deleted; not shown: histidine tag
B3: ZR + K (SEQ ID NO: 6), histidine-tagged (peptide)
peptide: SFFNNKRK
notes: ZR derivative with a Lys added after Arg7; not shown: histidine tag

Target: T1, Aβ42 oligomers (UniProt P05067 672-713)
T1 construct: domain: Aβ42; Oligomeric state
Experiment: ELISA on coated Aβ42 oligomers, His-tagged polypeptide at 1 µg per well
Protocol: 100 μL of monomers, oligomers or fibers of Aβ42, PrP, amylin, insulin or lysozyme were respectively coated onto a 96-well ELISA microplate at 1 μg/well, BSA was used as a negative control. The plate were then placed at 37° C. for 2 h, blocked with 200 μL/well of 3% BSA at 37° C. for 2 h, and washed 3 times with PBS. 100 μL of histidine-tagged ZR polypeptide solution was added, and the plate was incubated at room temperature for 1 h, and then washed 3 times with PBS containing 0.1% Tween-20. 100 μL of HRP-linked antibody 9E10 which can recognize the histidine tag was added to each well, and the plate was incubated at room temperature for 1 h, and then washed 3 times with PBS containing 0.1% Tween-20. 100 μL of TMB was added to each well, and the plate was placed at 37° C. for 20 min. Then, 50 μL of 1 mmol/L sulfuric acid was added to each well to terminate the reaction, and OD450 values were measured using a microplate reader. The above procedure was repeated for 3 times under the same condition.

T1 sequence (P05067 672-713 limits assumed): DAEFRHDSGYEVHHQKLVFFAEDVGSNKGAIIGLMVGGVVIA

Binder | OD450
B1 | 0.54
SAFQNKR (not shown: histidine tag) [ZR4-FN/AQ (SEQ ID NO: 4), histidine-tagged] | 0.47
B2 | 0.49
B3 | 0.56
